Results: patent US20250171806A1 (BROAD INSTITUTE, published 2025)

Assays:
Experiment in all cases: co-immunoprecipitation from HEK293 lysate: Flag IP of NS3, HA Western blot
[1] = target: T1, HA-tagged Galleria mellonella (Gm) densovirus capsid protein VP2 (Galleria mellonella (Gm) densovirus, UniProt Q90125 277-811)
T1 construct: also called Gm VP2; GmDNV capsid VP protein 2
T1 sequence: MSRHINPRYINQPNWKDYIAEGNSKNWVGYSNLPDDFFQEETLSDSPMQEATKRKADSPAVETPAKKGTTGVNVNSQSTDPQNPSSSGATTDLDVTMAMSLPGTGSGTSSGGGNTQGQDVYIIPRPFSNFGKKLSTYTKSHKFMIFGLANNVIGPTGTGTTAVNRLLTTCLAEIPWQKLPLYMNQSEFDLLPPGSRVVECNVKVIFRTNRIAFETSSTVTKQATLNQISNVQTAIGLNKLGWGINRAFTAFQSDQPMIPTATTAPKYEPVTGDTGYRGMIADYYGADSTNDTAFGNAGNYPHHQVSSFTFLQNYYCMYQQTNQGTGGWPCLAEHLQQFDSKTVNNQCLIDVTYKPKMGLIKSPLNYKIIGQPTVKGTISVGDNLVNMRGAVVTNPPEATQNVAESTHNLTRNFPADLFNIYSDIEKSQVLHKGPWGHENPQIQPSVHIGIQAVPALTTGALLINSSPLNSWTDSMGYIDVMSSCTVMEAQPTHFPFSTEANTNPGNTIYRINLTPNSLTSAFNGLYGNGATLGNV

[2] = target: T2, HA-tagged Galleria mellonella (Gm) densovirus capsid protein VP1 (Galleria mellonella (Gm) densovirus, UniProt Q90125 1-811)
T2 construct: also called Gm VP1; GmDNV capsid VP protein 1
T2 sequence: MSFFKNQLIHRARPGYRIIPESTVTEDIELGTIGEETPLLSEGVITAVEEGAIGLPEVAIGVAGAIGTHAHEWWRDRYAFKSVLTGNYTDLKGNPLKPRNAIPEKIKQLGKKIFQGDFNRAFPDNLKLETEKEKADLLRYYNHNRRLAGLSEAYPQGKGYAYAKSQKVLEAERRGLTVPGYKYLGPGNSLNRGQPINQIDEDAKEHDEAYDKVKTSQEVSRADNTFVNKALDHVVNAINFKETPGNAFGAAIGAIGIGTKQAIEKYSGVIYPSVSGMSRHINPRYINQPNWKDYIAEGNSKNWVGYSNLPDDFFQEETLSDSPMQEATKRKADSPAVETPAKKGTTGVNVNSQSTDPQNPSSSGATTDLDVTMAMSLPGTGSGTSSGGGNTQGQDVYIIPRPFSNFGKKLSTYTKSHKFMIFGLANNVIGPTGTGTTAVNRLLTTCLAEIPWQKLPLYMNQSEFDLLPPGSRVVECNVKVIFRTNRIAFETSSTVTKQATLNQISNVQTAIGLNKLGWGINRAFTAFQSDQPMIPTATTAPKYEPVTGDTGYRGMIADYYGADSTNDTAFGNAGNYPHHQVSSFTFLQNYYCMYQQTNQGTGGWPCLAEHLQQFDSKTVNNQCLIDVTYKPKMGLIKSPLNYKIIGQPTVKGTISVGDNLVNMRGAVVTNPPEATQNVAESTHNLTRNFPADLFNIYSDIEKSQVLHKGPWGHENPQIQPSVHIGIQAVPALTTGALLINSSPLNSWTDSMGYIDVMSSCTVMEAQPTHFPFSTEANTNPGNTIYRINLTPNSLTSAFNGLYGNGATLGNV

[3] = target: T3, HA-tagged Galleria mellonella (Gm) densovirus capsid protein VP3 (Galleria mellonella (Gm) densovirus, UniProt Q90125 324-811)
T3 construct: also called Gm VP3; GmDNV capsid VP protein 3
T3 sequence: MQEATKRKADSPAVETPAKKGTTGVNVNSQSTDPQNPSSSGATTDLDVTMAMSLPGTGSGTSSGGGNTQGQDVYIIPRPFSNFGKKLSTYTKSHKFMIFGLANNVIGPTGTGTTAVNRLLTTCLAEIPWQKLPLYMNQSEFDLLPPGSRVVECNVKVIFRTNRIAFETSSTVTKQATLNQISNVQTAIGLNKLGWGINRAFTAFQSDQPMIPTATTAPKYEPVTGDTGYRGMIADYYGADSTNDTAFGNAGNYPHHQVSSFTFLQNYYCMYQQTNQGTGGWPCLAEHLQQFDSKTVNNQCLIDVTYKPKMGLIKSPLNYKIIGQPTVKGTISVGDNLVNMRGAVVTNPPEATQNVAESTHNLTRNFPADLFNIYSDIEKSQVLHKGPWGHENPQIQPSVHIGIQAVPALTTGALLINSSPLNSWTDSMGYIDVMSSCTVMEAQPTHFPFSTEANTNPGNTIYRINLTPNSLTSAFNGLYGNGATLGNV

[4] = target: T4, HA-tagged Galleria mellonella (Gm) densovirus capsid protein VP4 (Galleria mellonella (Gm) densovirus, UniProt Q90125 375-811)
T4 construct: also called Gm VP4; GmDNV capsid VP protein 4
T4 sequence: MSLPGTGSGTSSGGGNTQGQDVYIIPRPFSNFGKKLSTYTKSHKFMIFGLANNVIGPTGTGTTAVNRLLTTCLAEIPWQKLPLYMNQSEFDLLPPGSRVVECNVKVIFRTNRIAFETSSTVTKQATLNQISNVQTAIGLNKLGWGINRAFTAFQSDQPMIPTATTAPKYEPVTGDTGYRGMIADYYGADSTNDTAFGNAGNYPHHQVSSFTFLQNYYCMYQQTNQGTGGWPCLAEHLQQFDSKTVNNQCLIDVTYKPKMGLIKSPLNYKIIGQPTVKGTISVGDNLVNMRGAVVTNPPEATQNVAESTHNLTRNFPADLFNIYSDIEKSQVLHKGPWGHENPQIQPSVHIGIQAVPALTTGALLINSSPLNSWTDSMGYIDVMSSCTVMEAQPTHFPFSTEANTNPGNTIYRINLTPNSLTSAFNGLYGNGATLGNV

Measured: binding result

B1: Flag-tagged Galleria mellonella (Gm) densovirus nonstructural protein NS3 (other)
chain: MSIAKFLYVRRLFEKVYNPKSLFYEAYKCARLNGLDMSILPKPILNMSHDMDTQIIACGEDINHTLAIEELEHWDWSKQNRLPFQLYLAVMNLTEIPEWLDETMLIECVYYFKELINHRDPYDTDELNTWNANGKPFKTMWKICKFCYNNCEDPDDYRFIYNRTVFVEDVEEIITRLQDSDSWCQLCHTCPLFNISAIYDNSPNNKQRRYSSSDDDDYMSNSFFVKHPNSRH
notes: also called Gm NS3; GmNS3; not shown: Flag tag, at either the N or the C terminus
binds: [1] | [2] | [3] | [4]

B2: Gm NS3 with C-terminal Flag tag (other)
chain: B1 chain
notes: also called NS3 when the Flag tag was present on the C-terminus; not shown: C-terminal Flag tag
binds: [1] | [2] | [3] | [4]
